In US20110243959A1, “MODULATING NEURONAL PLASTICITY AND TREATMENT OF NEURONAL LOSS BY MODULATIONG WNT7A OR WNT7B MODULATION” (priority 2008, published 2011):

B1: sFRP-1: Mature recombinant secreted frizzled-related protein 1 from R&D systems, used as local inhibitor of Wnt signaling (protein, UniProt Q8N474 32-314, looked up)
Secreted frizzled-related …: SEYDYVSFQSDIGPYQSGRFYTKPPQCVDIPADLRLCHNVGYKKMVLPNLLEHETMAEVKQQASSWVPLLNKNCHAGTQVFLCSLFAPVCLDRPIYPCRWLCEAVRDSCEPVMQFFGFYWPEMLKCDKFPEGDVCIAMTPPNATEASKPQGTTVCPPCDNELKSEAIIEHLCASEFALRMKIKEVKKENGDKKIVPKKKKPLKLGPIKKKDLKKLVLYLKNGADCPCHQLDNLSHHFLIMGRKVKSQYLLTAIHKWDKKNKEFKNFMKKMKNHECPTFQSVFK

Key:
[1] = tested on: Wnt signaling; test: Local application into CA3 in mice housed under control conditions; assay type: in vivo
Text: (§1) For enriched environment (EE) experiments, male mice were housed in groups of 3-4 littermates in large (rat) cages equipped with 3 running wheels per cage, toys and hiding spaces. Control mice were male littermates (3-4), which were housed individually in small standard cages without special equipment. Unless stated otherwise, EE was started at 1 month of age, and lasted 20 days.
Mature recombinant sFRP-1 was obtained from R&D systems and dissolved in PBS/0.1% BSA (vehicle: PBS/0.1% BSA) to a working concentration of 50 μg/ml. Wnt agonist (Calbiochem) was dissolved in a small volume of DMSO and then further diluted with PBS to a final concentration of 10 mM (DMSO<1:1000). PBS/DMSO solution alone was used as vehicle for control injections. Antibodies were from the following sources: Bassoon, anti-mouse Alexa Fluor 546 and 647, anti-goat Alexa Fluor 546 and 633, donkey anti-goat Alexa Fluor 568 (Molecular Probes); NeuN anti-mouse (CHEMICON); anti-human Wnt7a/b antibody (R&D, P56706). […] Reagents, with their working concentrations were: TTX (Laxotan, 1 μM, stock in acetate buffer), Bicuculine (SIGMA, 20 μM in water), CGP (SIGMA, 0.4 μM in water), Picrotoxin (SIGMA, 20 μM in water).
Injection canulas were implanted unilaterally (left hemisphere) above the CA3 b-a region of Isofluorane-anesthetized mice using stereotactical guidance. Canulas were fixed with dental cement. Implantation coordinates from Bregma (implantation 0.5 mm above injection site as the needle surpassed canula by 0.5 mm): ante-posterior −2.06 mm, lateral 2.5 mm, dorso-ventral −1.4 mm. Animals were allowed to recover for 3 days after surgery before drug treatments started.
(§2) Animals were injected under Isofluorane anesthesia with 300 nl of either drug (treated) or vehicle (control) through a small needle guided through the implanted canulas every 3-4 days for 12-21 days (depending on experiment). Canula positions were confirmed in all analyzed sections to be above Ca3b-a without harming the mossy fiber projection or CA3 pyramidal cell dendrites.
(§3) Microscope images were processed and analysed using Metamorph 6.1, Imaris 4.2 (Bitplane AG) and ImageJ softwares. We defined LMTs as mossy fiber terminal regions of >2.5 μm diameter in CA3a-c, which were arranged either en-passant, or as side structures connected to the mossy fiber axon or another LMT by an axonal process (satellite). For the quantification of LMT sizes in 3D (volumes) at least three confocal 3D stacks were acquired in CA3b for each preparation (three mice per condition), and analyzed using Imaris 4.2 software.
Individual LMT volumes contained in these cubes were measured using the Surpass/ Isosurface function of the software. Non-saturating imaging conditions were chosen for all size analyses. An intensity threshold of 300 was chosen to selectively analyze LMTs (excluding axons and other smaller objects). All identified objects were verified by eye inspection. Generally, the settings for the analysis were identical for all samples of all ages, but in some cases we verified the settings through internal calibration using the diameters and signal intensities of axons. After these measurements, LMTs were grouped according to their volumes. The volumes of all LMTs in one group were added up, and expressed as percentage of the total volume of all LMTs measured per cube. For the quantification of LMT sizes in 2D, MIPs of 3D stacks were created in ImageJ, and LMT surfaces (areas in μm^2) were measured. For all samples, LMTs were inspected by eye in 3D to be identified as individual LMTs and not fused with other LMTs. LMT numbers were determined in CA3b as follows: the sum of all mGFP-positive LMTs within a region of interest (ROI; a MIP) was divided by the number of mGFP-labeled axons within that ROI, and by the length along CA3 included in the ROI. LMT numbers were then normalized to 100 μm axon length. Wnt7a/b staining intensities were measured on single confocal planes. […]

[2] = tested on: Wnt signaling; test: Application to organotypic slice cultures; assay type: cell-based; details: organotypic slice cultures (not shown)
Text: Organotypic slice cultures were based on the Stoppini method (Stoppini et al., 1991), as described (De Paola et al., 2003).
Immunocytochemistry preparations were imaged on an LSM510 confocal microscope (Zeiss) using a 40× (1.4) oil-immersion objective. Imaging of organotypic slice cultures was as described. Briefly, images were acquired with an LSM 510 (Zeiss), using a 40× (1.4) oil objective (Zeiss); image sizes were 2048×2048, and stepsizes were 0.4 μm. Where indicated, drugs were replaced every 3-4 days, together with fresh medium.
as §3

[3] = tested on: Wnt signaling; test: sFRP-1 applied locally into hippocampal CA3 through a canule in mice housed under enriched environment (EE) conditions; assay type: in vivo; details: sFRP-1 present in CA3 during entire EE procedure, vs vehicle; no effect in dentate gyrus
Text: as §1
Mature recombinant sFRP-1 was obtained from R&D systems and dissolved in PBS/0.1% BSA (vehicle: PBS/0.1% BSA) to a working concentration of 50 μg/ml. Wnt agonist (Calbiochem) was dissolved in a small volume of DMSO and then further diluted with PBS to a final concentration of 10 mM (DMSO<1:1000). […]
as §2
(§4) Microscope images were processed and analysed using Metamorph 6.1, Imaris 4.2 (Bitplane AG) and ImageJ softwares. […] For the quantification of LMT sizes in 3D (volumes) at least three confocal 3D stacks were acquired in CA3b for each preparation (three mice per condition), and analyzed using Imaris 4.2 software. […]

[4] = tested on: Wnt signaling; test: sFRP-1 applied in Rab3a-/- mice housed under EE conditions; assay type: in vivo
Text: Transgenic mice expressing membrane-targeted GFP in only a few neurons (Thy1-mGFPs, L21 and L15) were as described (De Paola et al., 2003). Transgenic males were crossed over more than ten generations with non-transgenic F1 offsprings from C57BI6×BalbC crosses, so that the genetic background of the mice was 50% each of C57BI6 and BalbC. Rab3a knockout mice (B6; 129S-Rab3a^tm1Sud/J) were obtained from the Jackson Laboratory and backcrossed into Thy1-mGFP (L21) mice.
For enriched environment (EE) experiments, male mice were housed in groups of 3-4 littermates in large (rat) cages equipped with 3 running wheels per cage, toys and hiding spaces. […]
as §2, §4

[5] = local into CA3, control housing

| Molecule | AZ densities at LMTs [1, 5] | stratum lucidum AZ numbers [1, 5] | stratum lucidum LMT numbers [1, 5] | LMT satellite numbers [2] | effect of the enriched housing conditions on AZ numbers [3] | effect of the enriched housing conditions on satellite numbers [3] | effect of EE on LMT complexities [4] | effect of EE on LMT numbers [4] | contents of AZs per LMT [1, 5] | fractions of LMTs with satellites ([1]; local into CA3, control housing (not shown)) |
| --- | --- | --- | --- | --- | --- | --- | --- | --- | --- | --- |
| COc1cccc(-c2cnc(N)nc2NCc2ccc3c(c2)OCO3)c1 [Wnt agonist, 2-amino-4-[3,4-(methylenedioxy)benzyl-amino]-5-(3-methoxyphenyl)pyrimidine, reference compound] | increased | increased | increased | increases | – | – | – | – | – | – |
| B1 | – | reduction | – | – | effectively suppresses the effect of the enriched housing conditions | effectively suppresses the effect of the enriched housing conditions | effectively suppressed the effect of EE | effectively suppressed the effect of EE | reduction | reduction |
